Kd data for 1 substance are collected here from publication PMC6640053.

pKd: −log10 of the molar value.

A word on the pKd: it is the Kd on a negative log10 scale, so that one unit is a factor of ten.

The test system of this series is Lrp (C-terminal His6 as stated; cloned NdeI/XhoI in pET28a) (Escherichia coli K-12 (strain FW102 genomic DNA)). Kind of series: EMSA. To be noted: no effector; apparent overall Kd; four complexes B1-B4; 10 mM Tris-HCl pH 7.4, 5 mM MgCl2, 250 mM KCl, 2.5 mM CaCl2, 0.5 mM DTT, 2.5% glycerol, 37 C 25 min; L-Arg and/or L-Leu when indicated; excess sonicated …. For orientation: A gel shift assay detects complexes by their altered migration in electrophoresis.

Take artP control region: the pKd is 6.70.
